We go through 4 molecules from US20250197501A1 (DEVELOPMENT CENTER FOR BIOTECHNOLOGY, published 2025).

For orientation: Kd means the free concentration of one partner at which half of the binding sites on the other are occupied at equilibrium, for simple one-to-one binding. A word on the koff: it is the rate constant with which the complex falls apart. As a reminder, the kon is a measure of how fast the partners come together. One may read the EC50 as the midpoint of the concentration-response curve.

Residue numbers refer to the chain shown, from its start. Where two headings read alike, the source gives them in different places.

The target of test [1] is T1, human B7-H3 on the surface of human cancer cells (human, UniProt Q5ZPR3 29-534).
T1 sequence: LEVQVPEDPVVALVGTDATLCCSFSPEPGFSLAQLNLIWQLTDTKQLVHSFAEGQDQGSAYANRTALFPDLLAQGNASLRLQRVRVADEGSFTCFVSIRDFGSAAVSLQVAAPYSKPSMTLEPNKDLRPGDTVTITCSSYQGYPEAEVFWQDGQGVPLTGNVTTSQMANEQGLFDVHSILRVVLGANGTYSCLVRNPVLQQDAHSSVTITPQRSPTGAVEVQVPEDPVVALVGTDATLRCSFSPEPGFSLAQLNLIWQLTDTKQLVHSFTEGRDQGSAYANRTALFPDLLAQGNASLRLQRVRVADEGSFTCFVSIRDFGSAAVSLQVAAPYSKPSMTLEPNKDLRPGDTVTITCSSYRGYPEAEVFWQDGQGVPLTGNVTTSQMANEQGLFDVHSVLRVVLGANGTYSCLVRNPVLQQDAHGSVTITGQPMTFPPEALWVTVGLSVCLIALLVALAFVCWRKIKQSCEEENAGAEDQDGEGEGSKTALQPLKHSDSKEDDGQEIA
The test is described as follows: cell-based or functional assay.

For test [2], the target named is T2, recombinant human B7-H3-mFc protein (human, UniProt Q5ZPR3 29-466).
T2 construct: also called B7-H3 protein; not shown: mouse Fc domain
T2 sequence: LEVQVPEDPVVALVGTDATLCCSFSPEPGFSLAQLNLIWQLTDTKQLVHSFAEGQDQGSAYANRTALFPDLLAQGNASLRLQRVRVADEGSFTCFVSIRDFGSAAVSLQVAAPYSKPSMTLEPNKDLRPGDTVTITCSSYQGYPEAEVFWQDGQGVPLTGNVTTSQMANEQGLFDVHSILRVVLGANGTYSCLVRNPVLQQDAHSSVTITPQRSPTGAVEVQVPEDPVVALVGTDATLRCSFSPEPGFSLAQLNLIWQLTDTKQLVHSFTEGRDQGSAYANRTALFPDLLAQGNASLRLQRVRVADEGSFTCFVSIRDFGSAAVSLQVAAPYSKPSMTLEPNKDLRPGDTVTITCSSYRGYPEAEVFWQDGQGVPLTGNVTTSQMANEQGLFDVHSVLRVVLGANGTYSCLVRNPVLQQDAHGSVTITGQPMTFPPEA
The test is described as follows: SPR; MMAE conjugate, not parental mAb. The procedure:
The binding kinetics of the present antibodies against human B7-H3 were determined by Biacore™ assay. Carboxymethylated dextran biosensor chips (CM5) were activated according to the supplier's instructions. Anti-human IgG (Fc) was diluted with immobilization buffer before injection at a flow rate of 10 μL/minute to achieve approximately 10,000 response units (RU) of coupled protein followed by the injection of 1 M ethanolamine to block unreacted groups. Human anti-B7-H3 antibodies were captured on anti-human IgG chip. For kinetics measurements, two-fold serial dilutions of human B7-H3-mFc protein (from 40 nM to 0.3125 nM) were injected in HBS-EP⁺ Biacore™ running buffer provided by the manufacturer at a flow rate of 30 μL/min.

Test [3] has as its target T3, recombinant rat B7-H3-mFc protein (rat, UniProt Q7TPB4 29-244).
T3 construct: also called rat B7-H3 mFc chimeric protein; rat B7-H3 Fc chimeric protein; not shown: mouse Fc domain
T3 sequence: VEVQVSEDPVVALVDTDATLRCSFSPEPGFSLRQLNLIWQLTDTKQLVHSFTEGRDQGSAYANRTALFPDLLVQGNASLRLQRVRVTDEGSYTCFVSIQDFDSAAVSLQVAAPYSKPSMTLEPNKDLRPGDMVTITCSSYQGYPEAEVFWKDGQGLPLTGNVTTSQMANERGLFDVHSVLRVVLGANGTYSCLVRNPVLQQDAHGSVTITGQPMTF
The test is described as follows: ELISA, plate coated with rat B7-H3 mFc. How it is done: (§1) The binding affinity of full-length antibodies to human, monkey, mouse and rat B7-H3 were evaluated by ELISA. In brief, 96-well plate was coated with B7-H3 proteins (i.e., human B7-H3-mFc protein, cynomolgus monkey B7-H3 protein or rat B7-H3 Fc chimeric protein) in coating buffer and incubated overnight at 4° C. After washing with PBS for 3 times, the 96-well plate was inverted and tapped on clean absorbent papers to remove excess liquid. The blocking buffer (PBS containing 1% bovine serum albumin (BSA) was added to the wells, followed by incubating the plate at 37° C. for 1 hour with gentle continual shaking. After washing with PBS for 3 times, serial dilutions of anti-B7-H3 antibody (in PBS containing 1% BSA) were added into the wells. The plate was incubated at 37° C. for 1 hour with gentle continual shaking. After washing with PBS for 3 times, the secondary antibody (peroxidase-conjugated AffiniPure™ F(ab′)₂ fragment goat anti-human IgG (H+L)) was added into the wells and then incubated at 37° C. for 1 hour with gentle continual shaking. The plate was washed with PBS for 3 times, and the TMB substrate was added into each well and incubated at room temperature for 5 minutes, avoiding from light. 1 N HCl stop solution was added into each well and the absorbance was measured at 450/650 nm. The binding affinity value (EC50) of antibodies was determined by software.

Test [4] addresses T2, recombinant human B7-H3-mFc protein. The test is described as follows: ELISA, plate coated with human B7-H3-mFc. How it is done:
as §1
For orientation: An ELISA detects its analyte on a solid surface through an enzyme-linked reagent.

Test [5] concerns the target T4, recombinant mouse B7-H3-mFc protein (mouse, UniProt Q8VE98 29-244).
T4 construct: not shown: mouse Fc domain
T4 sequence: T3 sequence with R33A, A62S, D131N, L156V, M214L
Description: ELISA, plate coated with mouse B7-H3 mFc. How it is done:
as §1

For test [6], the target named is T2, recombinant human B7-H3-mFc protein. The test is described as follows: SPR (Biacore), antibody captured on anti-human IgG chip, B7-H3 protein injected. (Surface plasmon resonance follows binding to a sensor surface in real time, without labels.)
Test [7] has as its target T3, recombinant rat B7-H3-mFc protein. Described as above.
Test [8] concerns the target T4, recombinant mouse B7-H3-mFc protein. The description is as above.
The next test concerns the target B7-H1. Description: ELISA on the named B7 family protein (Example 1.1), A450 readout; antibody concentration not given.
The target in another test is T5, B7-H2.
T5 chain: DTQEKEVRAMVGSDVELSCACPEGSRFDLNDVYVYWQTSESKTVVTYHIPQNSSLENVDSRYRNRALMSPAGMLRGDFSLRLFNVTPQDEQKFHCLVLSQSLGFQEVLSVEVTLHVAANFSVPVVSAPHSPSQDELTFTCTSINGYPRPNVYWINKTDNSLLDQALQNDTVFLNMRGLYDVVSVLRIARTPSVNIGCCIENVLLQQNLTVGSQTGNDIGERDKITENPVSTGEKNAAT
The description is as above.

The target of a further test is T6, B7-H4.
T6 construct: Member of the group m9
T6 chain: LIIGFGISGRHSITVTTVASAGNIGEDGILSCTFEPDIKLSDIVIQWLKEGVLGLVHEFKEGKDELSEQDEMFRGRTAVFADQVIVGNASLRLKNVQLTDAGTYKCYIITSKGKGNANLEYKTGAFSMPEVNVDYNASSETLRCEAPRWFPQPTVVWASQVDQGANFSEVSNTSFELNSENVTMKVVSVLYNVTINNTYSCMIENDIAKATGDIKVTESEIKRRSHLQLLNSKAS
Described as above.

The next test deals with T7, B7-H6.
T7 chain: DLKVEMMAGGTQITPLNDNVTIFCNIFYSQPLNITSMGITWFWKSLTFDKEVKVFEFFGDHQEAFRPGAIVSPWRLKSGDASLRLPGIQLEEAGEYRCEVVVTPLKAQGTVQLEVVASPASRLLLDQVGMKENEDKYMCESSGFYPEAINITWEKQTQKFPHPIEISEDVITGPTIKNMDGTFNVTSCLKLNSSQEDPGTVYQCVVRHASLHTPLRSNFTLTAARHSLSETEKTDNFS
The test is described as above.

The next test addresses T8, B7-H7.
T8 chain: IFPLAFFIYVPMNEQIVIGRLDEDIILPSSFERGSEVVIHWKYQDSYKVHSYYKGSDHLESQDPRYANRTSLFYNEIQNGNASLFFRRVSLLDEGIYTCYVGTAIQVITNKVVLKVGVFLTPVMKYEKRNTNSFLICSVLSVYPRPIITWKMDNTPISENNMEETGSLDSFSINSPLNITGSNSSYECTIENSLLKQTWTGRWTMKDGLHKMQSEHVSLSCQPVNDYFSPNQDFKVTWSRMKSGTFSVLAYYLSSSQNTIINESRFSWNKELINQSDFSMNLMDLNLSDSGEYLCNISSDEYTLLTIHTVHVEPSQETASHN
Described as above.

In test [9] the target is T1, human B7-H3 on the surface of human …. Description: cell-based or functional assay. This is another data set of the same source.
In test [10] the target is T9, recombinant cynomolgus monkey B7-H3 protein (cynomolgus monkey, UniProt Q7TPB4 26-248 (rat entry)).
T9 chain: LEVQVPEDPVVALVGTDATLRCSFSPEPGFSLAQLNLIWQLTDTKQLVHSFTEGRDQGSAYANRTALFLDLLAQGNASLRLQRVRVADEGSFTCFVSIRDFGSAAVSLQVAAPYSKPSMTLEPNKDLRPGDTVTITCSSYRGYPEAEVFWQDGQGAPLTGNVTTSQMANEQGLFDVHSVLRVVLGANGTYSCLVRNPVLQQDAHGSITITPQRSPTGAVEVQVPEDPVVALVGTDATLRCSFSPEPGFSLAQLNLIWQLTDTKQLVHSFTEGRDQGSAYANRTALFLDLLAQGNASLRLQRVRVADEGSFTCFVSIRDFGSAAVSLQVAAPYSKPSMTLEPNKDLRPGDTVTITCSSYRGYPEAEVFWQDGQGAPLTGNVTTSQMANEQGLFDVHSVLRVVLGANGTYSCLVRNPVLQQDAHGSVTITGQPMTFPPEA
Description: ELISA, plate coated with cynomolgus monkey B7-H3.

B1: 91H06-MMAE (other)
VH: EVQLVESGGGLVQPGGSLRLSCAASGFTFSDYGMGWVRQAPGKGLEWVSSISWDSSSKEYADSVKGRFTISRDNSKNTLYLQMNSLRAEDTAVYYCARAWIAIIGGGAHFDYWGQGTLVTVSS
VL: DIQMTQSPSSLSASVGDRVTITCRASQSVSSHLAWYQQKPGKAPKLLIYLTSSLQSGVPSRFSGSGSGTDFTLTISSLQPEDFATYYCMQSKSLPFTFGQGTKVEIKR
modifications: MMAE linked through a PEG linker and a protease-sensitive valine-citrulline or glutamate-valine-citrulline linker to the azide-modified antibody (mAb-4 Azide, tri-mannosyl ADC platform); DAR between 3.5 and 3.9; attachment residue not stated
notes: also called the present ADC
With B1, in test [1], the “Cytotoxicity activity (IC50, nM), CAL 27 cells” value was less than 50 nM; the “Cytotoxicity activity (IC50, nM), Detroit 562 cells” value was less than 50 nM; the “Cytotoxicity activity (IC50, nM), FaDu cells” value was less than 50 nM; the “Cytotoxicity activity (IC50, nM), LNCaP cells” value was less than 50 nM. Besides, in test [2], the Kd was found to be 0.24 nM, the koff is 0.000155 s⁻¹ and the kon was determined as 643000 M⁻¹ s⁻¹.

B2: mAb 91H06 (antibody, V domains shown)
VH: B1 VH
VL: B1 VL
notes: Fully human, detected with anti-human IgG; also called antibody 91H06; anti-B7-H3 monoclonal antibody 91H06
Turning to B2, the EC50 in test [3] turned out to be 0.0601 nM; in test [4], 0.0186 nM; in [5], 0.0767 nM. In addition, the Kd in [6] was found to be 0.227 nM; in test [8], 2.03 nM. Also, the kon in [7] stood at 178000 M⁻¹ s⁻¹. Moreover, the binding result in the test with B7-H1, with B7-H2, with B7-H4, in the test with B7-H6 and in the test with B7-H7 was “no binding” throughout.

B3: 91H06-MMAF (other)
VH: B1 VH
VL: B1 VL
modifications: MMAF linked through a PEG linker and a protease-sensitive valine-citrulline or glutamate-valine-citrulline linker to the azide-modified antibody (mAb-4 Azide, tri-mannosyl ADC platform); DAR between 3.5 and 3.9; attachment residue not stated
As to B3, in test [9], the “Cytotoxicity activity (IC50, nM), CAL 27 cells” value is less than 10 nM; the “Cytotoxicity activity (IC50, nM), Detroit 562 cells” value was less than 10 nM; the “Cytotoxicity activity (IC50, nM), FaDu cells” value is less than 10 nM; the “Cytotoxicity activity (IC50, nM), LNCaP cells” value was less than 10 nM.

B4: Ifinatamab (antibody, V domains shown)
VH: QVQLVQSGAEVKKPGSSVKVSCKASGYTFTNYVMHWVRQAPGQGLEWMGYINPYNDDVKYNEKFKGRVTITADESTSTAYMELSSLRSEDTAVYYCARWGYYGSPLYYFDYWGQGTLVTVSS
VL: EIVLTQSPATLSLSPGERATLSCRASSRLIYMHWYQQKPGQAPRPLIYATSNLASGIPARFSGSGSGTDFTLTISSLEPEDFAVYYCQQWNSNPPTFGQGTKVEIK
For B4, the EC50 is 0.0356 nM in test [4] and 0.127 nM in [10].
